Experimental data as given in article PMC13193609, “Polyphosphate modulates the stress-responsive formation of functional RNA-protein condensates in bacteria and mammalian cells”.

Molecular target: Hfq (Escherichia coli, UniProt P0A6X3 1-102)
Assay: EMSA; 25 uM Hfq with 0.5-4 uM FAM-rA30, no polyP; Condensates: 20 mM HEPES pH 7.0, 50 mM NaCl, no crowder; EMSA buffer and temperature not given in the material
Conditions: protein: recombinant; chain copies: 6; label: FAM (5' as printed FAM-(rA)30); single strand

Sequence of Hfq (P0A6X3 whole entry): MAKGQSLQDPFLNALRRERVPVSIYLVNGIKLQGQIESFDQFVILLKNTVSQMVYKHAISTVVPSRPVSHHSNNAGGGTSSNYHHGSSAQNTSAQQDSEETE

AAAAAAAAAAAAAAAAAAAAAAAAAAAAAA (ssRNA) [FAM-rA30]
binding result: binds
